What was measured:
Human CD3 epsilon = biological target: T1, Human CD3 epsilon (human, UniProt P07766 23-207); experiment: flow cytometry on human PAN-T cells, 60 min at 4 °C
T1 construct: Stood on human T cells (pan-T cells, isolated donor T cells) as part of the TCR/CD3 complex; the other chains of the complex are not written here; also called CD3ε; CD3R
Procedure: Human PAN-T Cells (Biological Specialty Corporation, Colmar, PA) were thawed and transferred to a 15 mL conical with DPBS. The cells were centrifuged 1300 rpm for 5 minutes. DPBS was aspirated and cells were re-suspended in DPBS. The cells were counted using the Vi-cell XR cell viability analyzer and were plated at 100K/well in 100 uL DPBS. The plate was centrifuged 1200 rpm for 3 minutes and washed 2× with DPBS. Cells were stained with Violet Live/Dead stain (Thermo-Fisher) and incubated at room temperature in the dark for 15 min. The cells were centrifuged and washed 2× with FACS staining buffer (BD Pharmingen).
Cells were washed 2× with FACS staining buffer and re-suspended in 200 μL FACS Buffer. Cells were run on BD Celesta using FACS Diva software and analyzed using FLOWJO.

[1] = biological target: T2, prostate specific membrane antigen (PSMA) (human, UniProt Q04609 1-750); experiment: flow cytometry on LNCaP cells, 30 min at 37 °C
T2 construct: whole, on cells
Procedure: Media was added to neutralize trypsin and the cells were transferred to a 15 mL conical with DPBS. The cells were centrifuged 1300 rpm for 5 minutes. DPBS was aspirated and cells were re-suspended in DPBS. The cells were counted using the Vi-cell XR cell viability analyzer and were plated at 100K/well in 100 μL DPBS. The plate was centrifuged at 1200 rpm for 3 minutes and washed 2× with DPBS. Cells were stained with Violet Live/Dead stain (Thermo-Fisher) and incubated at room temperature in the dark for 15 min. The cells were centrifuged and washed 2× with FACS staining buffer (BD Pharmingen).
Cells were washed 2× with FACS staining buffer and re-suspended in 200 μL FACS Buffer. Cells were run on BD CELESTA using FACS Diva software and analyzed using FLOWJO.

[2] = biological target: T2, prostate specific membrane antigen …; experiment: cell-based or functional assay
cyno GUCY2C = cyno GUCY2C (cynomolgus monkey, UniProt A0A2K5TZ02 16-1015); experiment: flow cytometry on CHO-cynoGUCY2C cells, 60 min at 37 °C
Procedure: (§1) Cells were washed twice again, resuspended and acquired in a flow cytometer. Specific antibody binding was assessed in the RL1H channel for each cell line. Data presented as signal/background where background is secondary only.

human GUCY2C = biological target: T3, human GUCY2C (human, UniProt P25092 24-1073); experiment: flow cytometry on CHO-huGUCY2C cells, 60 min at 37 °C
T3 construct: whole, on cells; also called huGUCY2C; guanylate cyclase 2C
Procedure: as §1

human claudin 18.2 [3] = biological target: T4, human claudin 18.2 (human, UniProt P56856-2 1-261); experiment: flow cytometry on GSU cells, 1 hr at 37 °C
T4 construct: whole, on cells; also called CLDN18.2
T4 sequence (looked up): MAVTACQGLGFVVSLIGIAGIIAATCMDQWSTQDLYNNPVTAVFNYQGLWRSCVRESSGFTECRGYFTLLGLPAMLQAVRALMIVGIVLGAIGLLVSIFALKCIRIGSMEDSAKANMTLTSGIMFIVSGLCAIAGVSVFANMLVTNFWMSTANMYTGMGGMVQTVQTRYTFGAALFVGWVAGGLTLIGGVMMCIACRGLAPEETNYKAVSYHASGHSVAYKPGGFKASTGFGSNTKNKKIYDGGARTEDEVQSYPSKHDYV
Procedure: (§2) Cells were thawed in a 37° C. water bath and resuspended in complete assay media before being transferred to culture flasks. The cells used for this experiment were kept in active culture, passaged at least two times, and were >90% viable at assay initiation. The kinetic cell binding assay was initiated by adding 200 μL of cells and 200 μL of antibody into each well of a 2 mL 96-well deep plate and incubated at 37° C. At each time point, a 50 μL aliquot was removed and transferred to a round bottom 96-well plate containing cold FACS buffer. […] The secondary antibody was incubated with cells for 30 min at 4° C. protected from light. After incubation, cells were washed three times with cold FACS buffer and then resuspended in FACS buffer containing 0.1% pluronic acid, 2 mM EDTA, and Sytox Green (diluted 1:1000) to label all dead cells. Staining was immediately analyzed on the Intellicyt iQue3 (Sartorius).

human claudin 18.2 [4] = biological target: T4, human claudin 18.2; experiment: flow cytometry on SK-CO-1 cells, 1 hour at 37 °C
Procedure: Purified CLDN18.2×CD3 antibodies were assessed for their ability to bind to cell lines expressing endogenous CLDN18.2 (SK-CO-1).
SK-CO-1 cells and DMS 454 cells were suspended in 50 ml conical tubes at 20-22 million cells per 50 ml conical tube. […] Cells were incubated for 10 minutes at room temperature protected from light, and centrifuged for 5 minutes at 400×g. The supernatant was removed and the cells were resuspended in HI FBS at ˜1.5×10\hat{ }6 cells/mL to quench the staining reactions. All cells were resuspended in fresh media at ˜1.5×10\hat{ }6 cells/mL. Equal volumes of CFSE stained SK-CO-1 cells, CTV stained DMS 454 cells and unstained SK-CO-1 cells were mixed and 50 μl of mixed cells were plated per well into assay plates (˜25k cells/each cell line; ˜75k/total mixed cells/well). Anti-human transferrin human mAb and human IgG1_AAS isotype (bivalent) were used as positive and negative controls, respectively. 50 μl of CLDN18.2×CD3 titrations at 2× concentration were added in each well containing cells and incubated for one hours at 37° C. 150 μl staining buffer was added to each well after one hour incubation. The plate was spun at 500×g for 5 minutes to pellet the cells. 150 μl staining buffer was added again to each well and the plate was spun at 500×g for 5 minutes to pellet the cells. Supernatant was removed and 50 μl of A647 conjugated anti human IgG Fc specific secondary detection antibody (Jackson ImmunoResearch) was the added at 2 μg/mL in staining buffer to each well. The plates were covered with foil and incubated for 30 minutes on ice. 150 μL of IntelliCyt running buffer was added to the wells, and the plate was spun at 500×g for 5 minutes to pellet cells and the supernatant was removed. Cells were then resuspended in 35 μL running buffer and the plates were run on an iQue Screener (Sartorius).

human claudin 18.2 [5] = biological target: T4, human claudin 18.2; experiment: flow cytometry on NCI-H146 cells, 1 hr at 37 °C
Procedure: as §2

T2 sequence (Q04609 whole entry): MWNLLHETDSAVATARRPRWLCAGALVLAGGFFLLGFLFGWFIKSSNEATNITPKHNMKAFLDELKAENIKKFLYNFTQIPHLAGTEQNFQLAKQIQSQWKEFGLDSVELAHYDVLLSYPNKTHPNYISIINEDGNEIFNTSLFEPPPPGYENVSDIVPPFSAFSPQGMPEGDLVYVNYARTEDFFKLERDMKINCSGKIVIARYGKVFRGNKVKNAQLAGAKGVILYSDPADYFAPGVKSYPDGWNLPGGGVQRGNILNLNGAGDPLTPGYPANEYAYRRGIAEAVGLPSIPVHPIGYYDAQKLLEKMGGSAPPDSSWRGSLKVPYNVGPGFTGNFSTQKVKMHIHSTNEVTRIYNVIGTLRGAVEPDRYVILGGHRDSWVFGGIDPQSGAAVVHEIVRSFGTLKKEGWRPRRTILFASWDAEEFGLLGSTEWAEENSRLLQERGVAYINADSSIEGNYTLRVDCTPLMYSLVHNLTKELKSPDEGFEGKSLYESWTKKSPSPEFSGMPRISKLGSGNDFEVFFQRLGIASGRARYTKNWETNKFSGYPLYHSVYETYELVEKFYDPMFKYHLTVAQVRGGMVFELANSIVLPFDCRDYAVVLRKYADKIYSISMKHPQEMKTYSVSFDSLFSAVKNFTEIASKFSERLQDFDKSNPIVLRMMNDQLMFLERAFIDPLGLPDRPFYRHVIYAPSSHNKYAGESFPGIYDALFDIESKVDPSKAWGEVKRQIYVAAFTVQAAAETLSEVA
T1 sequence (P07766 23-207 limits assumed): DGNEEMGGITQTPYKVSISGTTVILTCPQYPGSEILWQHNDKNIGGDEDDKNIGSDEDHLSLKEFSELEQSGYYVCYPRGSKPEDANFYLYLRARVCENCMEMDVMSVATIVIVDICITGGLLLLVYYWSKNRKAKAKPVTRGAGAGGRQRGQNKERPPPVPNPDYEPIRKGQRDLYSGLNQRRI
cyno GUCY2C, sequence (A0A2K5TZ02 entry or part of it): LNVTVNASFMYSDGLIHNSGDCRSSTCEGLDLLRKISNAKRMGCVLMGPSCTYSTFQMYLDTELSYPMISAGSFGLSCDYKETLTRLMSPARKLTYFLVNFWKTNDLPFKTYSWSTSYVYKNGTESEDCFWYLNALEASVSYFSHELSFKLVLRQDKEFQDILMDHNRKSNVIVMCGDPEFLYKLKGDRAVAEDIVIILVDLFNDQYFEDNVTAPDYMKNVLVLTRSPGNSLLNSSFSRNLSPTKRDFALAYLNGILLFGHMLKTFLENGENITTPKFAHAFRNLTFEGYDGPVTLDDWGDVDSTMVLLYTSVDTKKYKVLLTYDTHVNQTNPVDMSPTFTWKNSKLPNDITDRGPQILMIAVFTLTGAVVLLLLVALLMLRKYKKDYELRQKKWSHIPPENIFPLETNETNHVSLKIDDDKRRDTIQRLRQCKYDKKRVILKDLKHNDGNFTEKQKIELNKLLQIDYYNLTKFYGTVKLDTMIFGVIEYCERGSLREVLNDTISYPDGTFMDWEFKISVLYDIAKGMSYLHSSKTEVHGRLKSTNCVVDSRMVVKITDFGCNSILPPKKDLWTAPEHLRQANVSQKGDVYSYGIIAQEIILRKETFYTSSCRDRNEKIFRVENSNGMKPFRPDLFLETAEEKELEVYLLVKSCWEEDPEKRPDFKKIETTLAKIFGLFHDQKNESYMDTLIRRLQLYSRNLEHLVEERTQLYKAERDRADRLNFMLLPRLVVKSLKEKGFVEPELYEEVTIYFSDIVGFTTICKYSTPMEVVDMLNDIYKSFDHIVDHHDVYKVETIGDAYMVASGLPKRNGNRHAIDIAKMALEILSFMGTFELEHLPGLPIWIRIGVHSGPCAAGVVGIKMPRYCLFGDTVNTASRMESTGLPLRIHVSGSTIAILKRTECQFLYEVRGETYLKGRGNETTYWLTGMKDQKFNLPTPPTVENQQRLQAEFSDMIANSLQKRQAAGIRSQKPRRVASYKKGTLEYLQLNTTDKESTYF
T3 sequence (P25092 24-1073): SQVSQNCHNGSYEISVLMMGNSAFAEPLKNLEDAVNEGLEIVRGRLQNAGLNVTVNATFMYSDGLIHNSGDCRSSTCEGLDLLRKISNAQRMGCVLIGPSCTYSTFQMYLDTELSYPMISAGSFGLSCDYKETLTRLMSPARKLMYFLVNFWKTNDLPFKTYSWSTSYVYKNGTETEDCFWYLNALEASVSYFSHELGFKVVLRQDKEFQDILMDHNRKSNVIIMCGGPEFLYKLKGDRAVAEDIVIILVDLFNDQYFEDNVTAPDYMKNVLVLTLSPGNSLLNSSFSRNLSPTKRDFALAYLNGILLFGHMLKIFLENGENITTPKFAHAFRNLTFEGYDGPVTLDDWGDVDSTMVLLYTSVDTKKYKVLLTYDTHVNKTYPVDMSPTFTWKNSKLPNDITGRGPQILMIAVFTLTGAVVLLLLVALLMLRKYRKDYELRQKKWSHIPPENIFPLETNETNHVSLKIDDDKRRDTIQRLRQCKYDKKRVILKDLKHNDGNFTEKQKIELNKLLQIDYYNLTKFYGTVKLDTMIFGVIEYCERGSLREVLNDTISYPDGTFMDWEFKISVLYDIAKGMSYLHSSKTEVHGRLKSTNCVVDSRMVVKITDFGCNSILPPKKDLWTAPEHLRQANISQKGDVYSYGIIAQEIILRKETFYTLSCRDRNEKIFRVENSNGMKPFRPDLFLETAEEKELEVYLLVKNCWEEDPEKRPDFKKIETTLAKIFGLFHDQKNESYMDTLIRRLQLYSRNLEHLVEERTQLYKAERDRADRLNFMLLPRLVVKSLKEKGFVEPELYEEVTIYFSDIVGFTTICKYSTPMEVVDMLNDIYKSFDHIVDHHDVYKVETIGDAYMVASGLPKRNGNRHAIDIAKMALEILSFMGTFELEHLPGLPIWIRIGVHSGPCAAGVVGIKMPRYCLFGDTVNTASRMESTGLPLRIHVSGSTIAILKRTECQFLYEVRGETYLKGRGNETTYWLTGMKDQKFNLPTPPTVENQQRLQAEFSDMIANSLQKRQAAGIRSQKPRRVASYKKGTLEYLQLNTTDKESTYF

B1: stapled PSMA×CD3 antibody (PS3B2040) (bispecific antibody, human IgG1, lambda, L234A L235A)
heavy: EVQLVESGGGLVQPGGSLRLSCAASGFTFSSYAMSWVRQAPGKGLEWVSAISGGIGSTYYADSVKGRFTISRDNSKNTLWLQMNSLRAEDTAVYYCAKDAVGATPYYFDYWGQGTLVTVSSASTKGPSVFPLAPSSKSTSGGTAALGCLVKDYFPEPVTVSWNSGALTSGVHTFPAVLQSSGLYSLSSVVTVPSSSLGTQTYICNVNHKPSNTKVDKKVEPKSCDKTHTCPPCPAPEAAGGPSVFLFPPKPKDTLMISRTPEVTCVVVSVSHEDPEVKFNWYVDGVEVHNAKTKPREEQYNSTYRVVSVLTVLHQDWLNGKEYKCKVSNKALPAPIEKTISKAKGQPREPQVYTLPPSREEMTKNQVSLSCAVKGFYPSDIAVEWESNGQPENNYKTTPPVLDSDGSFFLVSKLTVDKSRWQQGNVFSCSVMHEALHNRFTQKSLSLSPGK
light: QSVLTQPPSVSAAPGQKVTISCSGSSSNIGINYVSWYQQLPGTAPKLLIYDNNKRPSGIPDRFSGSKSGTSATLGITGLQTGDEADYYCGTWDSSLSAVVFGGGTKLTVLGQPKAAPSVTLFPPSSEELQANKATLVCLISDFYPGAVTVAWKADSSPVKAGVETTTPSKQSNNKYAASSYLSLTPEQWKSHRSYSCQVTHEGSTVEKTVAPTECS
chain: EIVLTQSPATLSASPGERVTLSCSASSSVSYMNWYQQKPGCAPRRWIYDSSKLASGVPARFSGSGSGRDYTLTISSLEPEDFAVYYCQQWSRNPPTFGGGTKVEIKGGGSGGSGGCPPCGGSGGQVQLVQSGAEVKKPGSSVKVSCKASGYTFTRSTMHWVKQAPGQGLEWIGYINPSSAYTNYNQKFQGRVTLTADKSTSTAYMELSSLRSEDTAVYYCASPQVHYDYAGFPYWGCGTLVTVSSEPKSSDKTHTCPPCPAPEAAGGPSVFLFPPKPKDTLMISRTPEVTCVVVSVSHEDPEVKFNWYVDGVEVHNAKTKPREEQYNSTYRVVSVLTVLHQDWLNGKEYKCKVSNKALPAPIEKTISKAKGQPREPQVYTLPPSREEMTKNQVSLWCLVKGFYPSDIAVEWESNGQPENNYKTTPPVLDSDGSFFLYSKLTVDKSRWQQGNVFSCSVMHEALHNHYTQKSLSLSPGK
notes: HC1/LC1 = anti-PSMA Fab arm (PSMB896-G100A-Fab); HC2 = anti-CD3 spFv-Fc (CD3B2030 N106A, VL-linker-VH); knob-in-hole IgG1; also called stapled PSMA×CD3 bispecific
Human CD3 epsilon
  binding result: binds
[1]
  EC50: 11.6 nM
[2]
  cytotoxicity EC50 (% tumor lysis, Incucyte), LNCaP cells with human PBMCs, E:T 3:1: 0.051 nM
  cytotoxicity EC50 (% tumor lysis, Incucyte), LNCaP cells with human Pan T cells, E:T 3:1: 0.06 nM

B2: GUCY2C_mAb (antibody, V domains shown)
VH: QVQLQESGPGLVKPSETLSLTCTVSGASISHYYWSWIRRPAGKGLEWIGRIYTSGSTNYNPSLKSRVTVSVDTSKNQFSLKLSSVTAADTAVYYCARDRYTGYFDLWGRGTLVTVSS
VL: not shown
notes: also called GUCYC2_mAb
Cyno GUCY2C
  EC50: 8.7 nM
Human GUCY2C
  EC50: 4.6 nM

B3: CLDN18.2xCD3 bisp-Ab4 (bispecific antibody)
heavy: EVQLLESGGGLVQPGGSLRLSCAASGFIFSNYYMAWVRLAPGKGLEWVSSISIGGGKSHYADSVKGRFTISRDNSKNTLYLQMNSLRAEDTAVYYCVRHPQLGPNPFDYWGQGTLVTVSSASTKGPSVFPLAPSSKSTSGGTAALGCLVKDYFPEPVTVSWNSGALTSGVHTFPAVLQSSGLYSLSSVVTVPSSSLGTQTYICNVNHKPSNTKVDKKVEPKSCDKTHTCPPCPAPEAAGGPSVFLFPPKPKDTLMISRTPEVTCVVVSVSHEDPEVKFNWYVDGVEVHNAKTKPREEQYNSTYRVVSVLTVLHQDWLNGKEYKCKVSNKALPAPIEKTISKAKGQPREPQVYTLPPSREEMTKNQVSLSCAVKGFYPSDIAVEWESNGQPENNYKTTPPVLDSDGSFFLVSKLTVDKSRWQQGNVFSCSVMHEALHNRFTQKSLSLSPGK
light: DIQMTQSPSSLSASVGDRVTITCRASQSVTISSVDLMNWYQQKPGKAPKLLIYRASNLASGIPSRFSGSGSGTDFTLTISSLQPEDFATYYCQQSRESPYTFGQGTKLEIKRTVAAPSVFIFPPSDEQLKSGTASVVCLLNNFYPREAKVQWKVDNALQSGNSQESVTEQDSKDSTYSLSSTLTLSKADYEKHKVYACEVTHQGLSSPVTKSFNRGEC
chain: EIVLTQSPATLSASPGERVTLSCSASSSVSYMNWYQQKPGCAPRRWIYDSSKLASGVPARFSGSGSGRDYTLTISSLEPEDFAVYYCQQWSRNPPTFGGGTKVEIKGGGSGGSGGCPPCGGSGGQVQLVQSGAEVKKPGSSVKVSCKASGYTFTRSTMHWVKQAPGQGLEWIGYINPSSAYTNYNQKFQGRVTLTADKSTSTAYMELSSLRSEDTAVYYCASPQVHYDYAGFPYWGCGTLVTVSS
notes: The entry for the CD3 arm holds only the spFv; also called CLDN18.2×CD3 bisp-Ab4; not shown: IgG1 hinge-CH2-CH3 with L234A/L235A/D265S and heterodimerization mutations
Human claudin 18.2 [3]
  EC50: 74 nM
Human claudin 18.2 [4]
  EC50: 41.3 nM
Human claudin 18.2 [5]
  EC50: 23 nM

B4: CLDN18.2xCD3 bisp-Ab1 (bispecific antibody)
heavy: EVQLLESGGGLVQPGGSLRLSCAASGFIFSNYYMAWVRLAPGKGLEWVSSISIGGGKSSYADSVKGRFTISRDNSKNTLYLQMNSLRAEDTAVYYCVRHPQLGPNPFDYWGQGTLVTVSSASTKGPSVFPLAPSSKSTSGGTAALGCLVKDYFPEPVTVSWNSGALTSGVHTFPAVLQSSGLYSLSSVVTVPSSSLGTQTYICNVNHKPSNTKVDKKVEPKSCDKTHTCPPCPAPEAAGGPSVFLFPPKPKDTLMISRTPEVTCVVVSVSHEDPEVKFNWYVDGVEVHNAKTKPREEQYNSTYRVVSVLTVLHQDWLNGKEYKCKVSNKALPAPIEKTISKAKGQPREPQVYTLPPSREEMTKNQVSLSCAVKGFYPSDIAVEWESNGQPENNYKTTPPVLDSDGSFFLVSKLTVDKSRWQQGNVFSCSVMHEALHNRFTQKSLSLSPGK
light: DIQMTQSPSSLSASVGDRVTITCRASQSVTISSVDLMNWYQQKPGKAPKLLIYRASNLASGIPSRFSGSGSGTDFTLTISSLQPEDFATYYCQQSRESPYTFGQGTKLEIKRTVAAPSVFIFPPSDEQLKSGTASVVCLLNNFYPREAKVQWKVDNALQSGNSQESVTEQDSKDSTYSLSSTLTLSKADYEKHKVYACEVTHQGLSSPVTKSFNRGEC
chain: EIVLTQSPATLSASPGERVTLSCSASSSVSYMNWYQQKPGCAPRRWIYDSSKLASGVPARFSGSGSGRDYTLTISSLEPEDFAVYYCQQWSRNPPTFGGGTKVEIKGGGSGGSGGCPPCGGSGGQVQLVQSGAEVKKPGSSVKVSCKASGYTFTRSTMHWVKQAPGQGLEWIGYINPSSAYTNYNQKFQGRVTLTADKSTSTAYMELSSLRSEDTAVYYCASPQVHYDYAGFPYWGCGTLVTVSS
notes: not shown: IgG1 hinge-CH2-CH3 with L234A/L235A/D265S and heterodimerization mutations
Human claudin 18.2 [4]
  EC50: 12.7 nM

B5: CLDN18.2xCD3 bisp-Ab2 (bispecific antibody)
heavy: EVQLLESGGGLVQPGGSLRLSCAASGFIFSNYYMAWVRLAPGKGLEWVSSISIGGGKSHYADSVKGRFTISRDNSKNTLYLQMNSLRAEDTAVYYCVRHPSLGPNPFDYWGQGTLVTVSSASTKGPSVFPLAPSSKSTSGGTAALGCLVKDYFPEPVTVSWNSGALTSGVHTFPAVLQSSGLYSLSSVVTVPSSSLGTQTYICNVNHKPSNTKVDKKVEPKSCDKTHTCPPCPAPEAAGGPSVFLFPPKPKDTLMISRTPEVTCVVVSVSHEDPEVKFNWYVDGVEVHNAKTKPREEQYNSTYRVVSVLTVLHQDWLNGKEYKCKVSNKALPAPIEKTISKAKGQPREPQVYTLPPSREEMTKNQVSLSCAVKGFYPSDIAVEWESNGQPENNYKTTPPVLDSDGSFFLVSKLTVDKSRWQQGNVFSCSVMHEALHNRFTQKSLSLSPGK
light: DIQMTQSPSSLSASVGDRVTITCRASQSVTISSVDLMNWYQQKPGKAPKLLIYRASNLASGIPSRFSGSGSGTDFTLTISSLQPEDFATYYCQQSRESPYTFGQGTKLEIKRTVAAPSVFIFPPSDEQLKSGTASVVCLLNNFYPREAKVQWKVDNALQSGNSQESVTEQDSKDSTYSLSSTLTLSKADYEKHKVYACEVTHQGLSSPVTKSFNRGEC
chain: EIVLTQSPATLSASPGERVTLSCSASSSVSYMNWYQQKPGCAPRRWIYDSSKLASGVPARFSGSGSGRDYTLTISSLEPEDFAVYYCQQWSRNPPTFGGGTKVEIKGGGSGGSGGCPPCGGSGGQVQLVQSGAEVKKPGSSVKVSCKASGYTFTRSTMHWVKQAPGQGLEWIGYINPSSAYTNYNQKFQGRVTLTADKSTSTAYMELSSLRSEDTAVYYCASPQVHYDYAGFPYWGCGTLVTVSS
notes: The entry for the CD3 arm holds only the spFv; not shown: IgG1 hinge-CH2-CH3 with L234A/L235A/D265S and heterodimerization mutations
Human claudin 18.2 [4]
  EC50: 193 nM

B6: CLDN18.2xCD3 bisp-Ab3 (bispecific antibody)
heavy: EVQLLESGGGLVQPGGSLRLSCAASGFIFSNYYMAWVRLAPGKGLEWVSSISIGGGKSHYADSVKGRFTISRDNSKNTLYLQMNSLRAEDTAVYYCVRHPQSGPNPFDYWGQGTLVTVSSASTKGPSVFPLAPSSKSTSGGTAALGCLVKDYFPEPVTVSWNSGALTSGVHTFPAVLQSSGLYSLSSVVTVPSSSLGTQTYICNVNHKPSNTKVDKKVEPKSCDKTHTCPPCPAPEAAGGPSVFLFPPKPKDTLMISRTPEVTCVVVSVSHEDPEVKFNWYVDGVEVHNAKTKPREEQYNSTYRVVSVLTVLHQDWLNGKEYKCKVSNKALPAPIEKTISKAKGQPREPQVYTLPPSREEMTKNQVSLSCAVKGFYPSDIAVEWESNGQPENNYKTTPPVLDSDGSFFLVSKLTVDKSRWQQGNVFSCSVMHEALHNRFTQKSLSLSPGK
light: DIQMTQSPSSLSASVGDRVTITCRASQSVTISSVDLMNWYQQKPGKAPKLLIYRASNLASGIPSRFSGSGSGTDFTLTISSLQPEDFATYYCQQSRESPYTFGQGTKLEIKRTVAAPSVFIFPPSDEQLKSGTASVVCLLNNFYPREAKVQWKVDNALQSGNSQESVTEQDSKDSTYSLSSTLTLSKADYEKHKVYACEVTHQGLSSPVTKSFNRGEC
chain: EIVLTQSPATLSASPGERVTLSCSASSSVSYMNWYQQKPGCAPRRWIYDSSKLASGVPARFSGSGSGRDYTLTISSLEPEDFAVYYCQQWSRNPPTFGGGTKVEIKGGGSGGSGGCPPCGGSGGQVQLVQSGAEVKKPGSSVKVSCKASGYTFTRSTMHWVKQAPGQGLEWIGYINPSSAYTNYNQKFQGRVTLTADKSTSTAYMELSSLRSEDTAVYYCASPQVHYDYAGFPYWGCGTLVTVSS
notes: as for B5
Human claudin 18.2 [4]
  EC50: 229 nM
